A value given as a limit tells only on which side of the number the result lay.

The source of these data is article PMC10952462, “Commentary on “The road to reliable peptide assays is paved with good guidelines”” (Clinical Endocrinology, 2023).

Data set [1] in a line: Stability of PYY1-36 and PYY3-36 in EDTA and lithium heparin plasma (LC-MS/MS assay validation). The note with it: for degradation in plasma at 4°C / degradation in plasma at room temperature / mean percentage difference in concentration, overall and between all tested sample sets: EDTA or LH plasma; for degradation in plasma at 4°C: 3 h time-point at 4°C; for degradation in plasma at 4°C / degradation in plasma at room temperature: with or without inhibitors (DPP4 inhibitor and Aprotinin), spiked samples and healthy volunteer samples, triplicate QCs (low and high); for degradation in plasma at room temperature: 3 h time-point at room temperature (19°C); for mean percentage difference in concentration, overall and between all tested sample sets: presence versus absence of inhibitors, 3 h at 19°C or 4°C, mean of injections of triplicate QCs (low and high); for differences in concentrations with only DPP4 inhibitor and Aprotinin present: spiked into plasma EDTA and LH from three different volunteers, inhibitor mix of DPP4 inhibitor and Aprotinin. It is filed as in vitro ADME, human. The method, then:
We have verified stability of PYY1 –36 and PYY3 –36 at preanalytical, analytical and post‐analytical stages of the assay. At preanalytical stage the whole blood is collected in prechilled lithium heparin (LH) or ethylenediaminetetraacetic acid (EDTA) tubes and containing evaluated in‐house inhibitors (DPP4 inhibitor and Aprotinin). The sample is centrifuged immediately at 4°C and flash‐frozen on dry ice or transferred immediately to a −80°C freezer. The samples are kept at −80°C until being thawed once only for analysis.
We deemed our protease inhibitors sufficient for maintaining stability of PYY1 –36 and PYY3 –36 and inhibiting peptide degradation.
(§1) Maurer et al. have quoted Toräng et al.'s study on PYY's major cleaving sites but disregarded the outcome from their study of the inhibitory effects of EDTA on metalloendoproteases, neuroendopeptidase (NEP) and Meprin β.[3] […] We have studied the stability of both PYY species with our inhibitor mix containing DPP4 inhibitor and Aprotinin, where we spiked PYY1 –36 and PYY3 –36 into plasma EDTA and LH from three different volunteers.
Furthermore, we have verified the stability of both species of PYY in both EDTA and LH plasma under the following conditions: (1) freezing and thawing up to a second cycle; (2) incubation at 4°C for up to 4 h; (3) long‐term storage (6 months) at −80°C; (4) postextraction, during storage in the autosampler at 4°C. We have verified the stability of our stock and working stock solutions for up to 7 months, stored at […]. We would state that it is a matter of standard operating procedure that we store these solutions at −80°C and discard these at the end of the day of the run after thawing, affording a safety margin. Last, our assay has been validated both with plasma‐based calibrants and QCs, and cross‐validated in a surrogate matrix (20BMA). We also validated matrix effects (ME) in spiked plasma EDTA and plasma LH. Mean percentage ME for PYY1 –36 was 100.7% and for PYY3 –36, 111% in plasma LH. EDTA ME results were reported previously.[2]

The conditions of data set [2]: collection tubes containing EDTA; ref 3 (Toräng et al.); cited from earlier work.
From the text: as §1

peptide YY3‐36 [PYY3 –36]: in data set [1], the “degradation in plasma at 4°C” value was “no degradation”; the “degradation in plasma at room temperature” value is given as “no degradation”; the “mean percentage difference in concentration, overall and between all tested sample sets” value is given as at most 10%; the “differences in concentrations with only DPP4 inhibitor and Aprotinin present” value is reported as “did not detect any significant differences”.
In the case of peptide YY1 –36 [PYY1 –36], in data set [1], the “degradation in plasma at 4°C” value is reported as “no degradation”; the “degradation in plasma at room temperature” value was “no degradation”; the “mean percentage difference in concentration, overall and between all tested sample sets” value is at most 10%; the “differences in concentrations with only DPP4 inhibitor and Aprotinin present” value was “did not detect any significant differences”.
As for “PYY: peptide YY, species not specified, as studied by Toräng et al.”, the “risk of PYY degradation in collected blood” value in data set [2] is given as “small”.
